# Experiments:
# Type in all cases: biochemical
# [1] = DHB dehydrogenase activity of cytosolic enzymes (DHB-dependent reduction of NAD+)
# Procedure: Activity of the cytosolic DHB dehydrogenases (Ec-Mdh, Bs-Mdh, Ll-LdhA) was assayed by following the DHB-dependent reduction of NAD^+.
# The reaction mixture contained 60 mM Hepes (pH 8), 50 mM potassium chloride, 5 mM MgCl2, 10 mM NAD, (optionally, 5 mM fructose-1,6-bisphosphate (F16bP)) (all products from Sigma), and appropriate amounts of purified enzyme or cell extract. Reactions were started by adding 50 mM (L)-2,4-dihydroxybutyrate (Rhodia).
# All enzymatic assays were carried out at 37° C. in 96-well flat bottomed microtiter plates in a final volume of 250 μL. The reactions were followed by the characteristic absorption of NADH at 340 nm (εNADH=6.22 mM^−1 cm^−1) or the absorbtion of DCIP at 655 nm (εDCIP=5.9 mM^−1 cm^−1) in a microplate reader (BioRad 680XR).
# [2] = Lactate dehydrogenase activity (natural substrate); conditions: for Max. specific activity, Natural substrate: natural substrate (L)-lactate, Table 2
# [3] = OHB decarboxylase activity (coupled to YqhD, NADPH); conditions: for Effect of mutation on activity and/or specificity for OHB (in words): versus wild-type enzyme
# Procedure: (§1) OHB decarboxylase activity was assayed by coupling the decarboxylase activity to the NADPH-dependent reduction of the released 3-hydroxypropanal by purified aldehyde reductase, YqhD, from E. coli. The decarboxylation of pyruvate was coupled to the NADH-dependent reduction of acetaldehyde catalysed by yeast alcohol dehydrogenase. Branched-chain alpha-ketoacid decarboxylase activity was measured on 4-methyl-2-oxovaleric acid by coupling to the NADH-dependent reduction of 3-methylbutanal catalysed by horse liver alcohol dehydrogenase. […] Reactions were started by adding 20 mM 2-oxo-4-hydroxybutyrate (OHB), 10 mM 4-methyl-2-oxovaleric acid (MOV), or 5 mM pyruvate.
# [4] = Branched-chain alpha-ketoacid decarboxylase activity (coupled to horse liver alcohol dehydrogenase)
# Procedure: as §1
# [5] = PDO dehydrogenase activity (PDO-dependent reduction of NADP); conditions: 100 mM 1,3-propanediol, 10 mM NADP, 37° C., pH 8
# Procedure: PDO dehydrogenase activity was assayed by following the PDO-dependent reduction of NADP. 1,3-propanediol+NADP^+→3-hydroxypropional+NADPH Reaction scheme:
# Reactions were started by adding 100 mM 1,3-propanediol (PDO, Sigma).
# [6] = Pyruvate decarboxylase activity (coupled to yeast alcohol dehydrogenase); conditions: activity measured at 50 mM pyruvate (Pdc mutants); Table 10
# Procedure: OHB decarboxylase activity was assayed by coupling the decarboxylase activity to the NADPH-dependent reduction of the released 3-hydroxypropanal by purified aldehyde reductase, YqhD, from E. coli. The decarboxylation of pyruvate was coupled to the NADH-dependent reduction of acetaldehyde catalysed by yeast alcohol dehydrogenase. Branched-chain alpha-ketoacid decarboxylase activity was measured on 4-methyl-2-oxovaleric acid by coupling to the NADH-dependent reduction of 3-methylbutanal catalysed by horse liver alcohol dehydrogenase. […]
# [7] = DHB dehydrogenase activity of membrane-associated enzyme (DHB-dependent reduction of DCIP)
# Procedure: Activity of the membrane-associated DHB dehydrogenase (Ec-LldD) was assayed by following the DHB-dependent reduction of 2,6-dichloroindophenol (DCIP). (L)-2,4-dihydroxybutyrate+DCIPox→2-oxo-4-hydroxybutyrate+DCIPred Reaction scheme 2:
# Reactions were started by adding 20 mM (L)-2,4-dihydroxybutyrate (Rhodia).
# [8] = activity measured at 20 mM OHB, Table 10
# [9] = activity measured at 10 mM MOV (KdcA mutants), Table 10
molecule,measurement,setting,value
"Ll-LdhA: (L)-lactate dehydrogenase of Lactococcus lactis, cytosolic, SEQ ID No. 120 (protein, listed as Lactococcus lactis) MADKQRKKVILVGDGAVGSSYAFALVNQGIAQELGIVDLFKEKTQGDAEDLSHALAFTSPKKIYSADYSDASDADLVVLTSGAPQKPGETRLDLVEKNLRITKDVVTKIVASGFKGIFLVAANPVDILTYATWKFSGFPKNRVVGSGTSLDTARFRQALAEKVDVDARSIHAYIMGEHGDSEFAVWSHANVAGVKLEQWFQENDYLNEAEIVELFESVRDAAYSIIAKKGATFYGVAVALARITKAILDDEHAVLPVSVFQDGQYGVSDCYLGQPAVVGAEGVVNPIHIPLNDAEMQKMEASGAQLKAIIDEAFAKEEFASAVKN",DHB dehydrogenase activity (in words),[1]; cytosolic wild-type enzymes,have DHB dehydrogenase activity
same,"Max. specific activity, DHB","[1]; when not saturated, activity estimated at 50 mM substrate, Table 2",1 µmol/mg/min
same,"Max. specific activity, Natural substrate",[2],8.8 µmol/mg/min
"Ll-KdcA: branched-chain alpha-ketoacid decarboxylase from L. lactis, SEQ ID No. 130 (protein, listed as Lactococcus lactis) MYTVGDYLLDRLHELGIEEIFGVPGDYNLQFLDQIISREDMKWIGNANELNASYMADGYARTKKAAAFLTTFGVGELSAINGLAGSYAENLPVVEIVGSPTSKVQNDGKFVHHTLADGDFKHFMKMHEPVTAARTLLTAENATYEIDRVLSQLLKERKPVYINLPVDVAAAKAEKPALSLEKESSTTNTTEQVILSKIEESLKNAQKPVVIAGHEVISFGLEKTVTQFVSETKLPITTLNFGKSAVDESLPSFLGIYNGKLSEISLKNFVESADFILMLGVKLTDSSTGAFTHHLDENKMISLNIDEGIIFNKVVEDFDFRAVVSSLSELKGIEYEGQYIDKQYEEFIPSSAPLSQDRLWQAVESLTQSNETIVAEQGTSFFGASTIFLKSNSRFIGQPLWGSIGYTFPAALGSQIADKESRHLLFIGDGSLQLTVQELGLSIREKLNPICFIINNDGYTVEREIHGPTQSYNDIPMWNYSKLPETFGATEDRVVSKIVRTENEFVSVMKEAQADVNRMYWIELVLEKEDAPKLLKKMGKLFAEQNK","Max. specific activity, OHB","[3]; when not saturated, activity estimated at 20 mM substrate, Table 8",0.08 µmol/mg/min
same,OHB decarboxylase activity (in words),[3]; wild-type enzymes,significant OHB decarboxylase activity
same,"Max. specific activity, Natural substrate","[4]; natural substrate 4-methyl-2-oxovaleric, Table 8",4 µmol/mg/min
"Ll-KdcA G402S: L. lactis KdcA mutant G402S, SEQ ID No. 196 (protein, listed as Lactococcus lactis) MYTVGDYLLDRLHELGIEEIFGVPGDYNLQFLDQIISREDMKWIGNANELNASYMADGYARTKKAAAFLTTFGVGELSAINGLAGSYAENLPVVEIVGSPTSKVQNDGKFVHHTLADGDFKHFMKMHEPVTAARTLLTAENATYEIDRVLSQLLKERKPVYINLPVDVAAAKAEKPALSLEKESSTTNTTEQVILSKIEESLKNAQKPVVIAGHEVISFGLEKTVTQFVSETKLPITTLNFGKSAVDESLPSFLGIYNGKLSEISLKNFVESADFILMLGVKLTDSSTGAFTHHLDENKMISLNIDEGIIFNKVVEDFDFRAVVSSLSELKGIEYEGQYIDKQYEEFIPSSAPLSQDRLWQAVESLTQSNETIVAEQGTSFFGASTIFLKSNSRFIGQPLWSSIGYTFPAALGSQIADKESRHLLFIGDGSLQLTVQELGLSIREKLNPICFIINNDGYTVEREIHGPTQSYNDIPMWNYSKLPETFGATEDRVVSKIVRTENEFVSVMKEAQADVNRMYWIELVLEKEDAPKLLKKMGKLFAEQNK","Max. specific activity, OHB",[3]; [8],0.09 µmol/mg/min
same,Effect of mutation on activity and/or specificity for OHB (in words),[3],increased activity and/or specificity for OHB
same,"Max. specific activity, Natural substrate",[4]; [9],3.1 µmol/mg/min
"Ll-KdcA V461I: L. lactis KdcA mutant V461I, SEQ ID No. 198 (protein, listed as Lactococcus lactis) MYTVGDYLLDRLHELGIEEIFGVPGDYNLQFLDQIISREDMKWIGNANELNASYMADGYARTKKAAAFLTTFGVGELSAINGLAGSYAENLPVVEIVGSPTSKVQNDGKFVHHTLADGDFKHFMKMHEPVTAARTLLTAENATYEIDRVLSQLLKERKPVYINLPVDVAAAKAEKPALSLEKESSTTNTTEQVILSKIEESLKNAQKPVVIAGHEVISFGLEKTVTQFVSETKLPITTLNFGKSAVDESLPSFLGIYNGKLSEISLKNFVESADFILMLGVKLTDSSTGAFTHHLDENKMISLNIDEGIIFNKVVEDFDFRAVVSSLSELKGIEYEGQYIDKQYEEFIPSSAPLSQDRLWQAVESLTQSNETIVAEQGTSFFGASTIFLKSNSRFIGQPLWGSIGYTFPAALGSQIADKESRHLLFIGDGSLQLTVQELGLSIREKLNPICFIINNDGYTIEREIHGPTQSYNDIPMWNYSKLPETFGATEDRVVSKIVRTENEFVSVMKEAQADVNRMYWIELVLEKEDAPKLLKKMGKLFAEQNK","Max. specific activity, OHB",[3]; [8],0.24 µmol/mg/min
same,Effect of mutation on activity and/or specificity for OHB (in words),[3],increased activity and/or specificity for OHB
same,"Max. specific activity, Natural substrate",[4]; [9],2.76 µmol/mg/min
"Ec-YqhD: alcohol dehydrogenase yqhD from Escherichia coli, used as PDO dehydrogenase (protein, UniProt Q46856 1-387, looked up) NADPH-dependent aldehyde …: MNNFNLHTPTRILFGKGAIAGLREQIPHDARVLITYGGGSVKKTGVLDQVLDALKGMDVLEFGGIEPNPAYETLMNAVKLVREQKVTFLLAVGGGSVLDGTKFIAAAANYPENIDPWHILQTGGKEIKSAIPMGCVLTLPATGSESNAGAVISRKTTGDKQAFHSAHVQPVFAVLDPVYTYTLPPRQVANGVVDAFVHTVEQYVTKPVDAKIQDRFAEGILLTLIEDGPKALKEPENYDVRANVMWAATQALNGLIGAGVPQDWATHMLGHELTAMHGLDHAQTLAIVLPALWNEKRDTKRAKLLQYAERVWNITEGSDDERIDAAIAATRNFFEQLGVPTHLSDYGLDGSSIPALLKKLEEHGMTQLGENHDITLDVSRRIYEAAR",PDO dehydrogenase activity,[5],0.15 µmol/min/mg
"Zm-Pdc G413N: Z. mobilis pyruvate decarboxylase mutant G413N, SEQ ID No. 194 (protein, listed as Zymomonas mobilis) MSYTVGTYLAERLVQIGLKHHFAVAGDYNLVLLDNLLLNKNMEQVYCCNELNCGFSAEGYARAKGAAAAVVTYSVGALSAFDAIGGAYAENLPVILISGAPNNNDHAAGHVLHHALGKTDYHYQLEMAKNITAAAEAIYTPEEAPAKIDHVIKTALREKKPVYLEIACNIASMPCAAPGPASALFNDEASDEASLNAAVEETLKFIANRDKVAVLVGSKLRAAGAEEAAVKFADALGGAVATMAAAKSFFPEENPHYIGTSWGEVSYPGVEKTMKEADAVIALAPVFNDYSTTGWTDIPDPKKLVLAEPRSVVVNGIRFPSVHLKDYLTRLAQKVSKKTGALDFFKSLNAGELKKAAPADPSAPLVNAEIARQVEALLTPNTTVIAETGDSWFNAQRMKLPNGARVEYEMQWNHIGWSVPAAFGYAVGAPERRNILMVGDGSFQLTAQEVAQMVRLKLPVIIFLINNYGYTIEVMIHDGPYNNIKNWDYAGLMEVFNGNGGYDSGAGKGLKAKTGGELAEAIKVALANTDGPTLIECFIGREDCTEELVKWGKRVAAANSRKPVNKLL","Max. specific activity, OHB",[3]; [8],0.04 µmol/mg/min
same,Effect of mutation on activity and/or specificity for OHB (in words),[3],increased activity and/or specificity for OHB
same,"Max. specific activity, Natural substrate",[6],0.1 µmol/mg/min
"Ec-LldD: membrane associated (L)-lactate dehydrogenase of E. coli, SEQ ID No. 122 (protein, listed as Escherichia coli) MIISAASDYRAAAQRILPPFLFHYMDGGAYSEYTLRRNVEDLSEVALRQRILKNMSDLSLETTLFNEKLSMPVALAPVGLCGMYARRGEVQAAKAADAHGIPFTLSTVSVCPIEEVAPAIKRPMWFQLYVLRDRGFMRNALERAKAAGCSTLVFTVDMPTPGARYRDAHSGMSGPNAAMRRYLQAVTHPQWAWDVGLNGRPHDLGNISAYLGKPTGLEDYIGWLGNNFDPSISWKDLEWIRDFWDGPMVIKGILDPEDARDAVRFGADGIVVSNHGGRQLDGVLSSARALPAIADAVKGDIAILADSGIRNGLDVVRMIALGADTVLLGRAFLYALATAGQAGVANLLNLIEKEMKVAMTLTGAKSISEITQDSLVQGLGKELPAALAPMAKGNAA",Specificity,"[7]; (Vmax/Km)DHB/(Vmax/Km)nat. substrate, natural substrate lactate",0.006
same,"Max. specific activity, DHB","[7]; DCIP assay, Table 2",0.37 µmol/mg/min
same,"Max. specific activity, DHB","[7]; E. coli LldD, Table 6",0.37 µmol/mg/min
same,DHB dehydrogenase activity (in words),[7]; membrane-associated enzyme,have DHB dehydrogenase activity
same,"Max. specific activity, lactate","[2]; E. coli LldD, Table 6",6.22 µmol/mg/min
same,"Max. specific activity, Natural substrate",[2],6.22 µmol/mg/min
